± gives the standard error. For some assays here: Variants at the floor of the assay were thinned out.

The chains are these.
B1: glmS ribozyme (parent)
chain: AUAAAAGCGCCAGAACUACAGAAAUGUAGUUGACGAGGAGGAGGUUUAUCGAAUUUUCGGCGGAUGCCUCCAAA

What all share (settings): with glucosamine-6-phosphate
In data set [1] the parent is B1. Briefly: kcat; higher = faster cleavage; RNA array. The gist of the method: (§1)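 A hybridised Cy3 probe tracked barcoded ribozyme variants, transcribed in situ by E. coli RNA polymerase on sequenced MiSeq chips, at 37 °C. The variants received 40 μM to 10 mM glucosamine-6-phosphate in HEPES/KCl/Mg(OAc)2 buffer. kobs came from decay fits and kcat and KM from weighted Michaelis–Menten fits.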

In data set [2] the parent is B1. Briefly: KM; higher = weaker cofactor use; RNA array. The gist of the method: as §1
In data set [3] the parent is B1. The experiment in a line: self-cleavage kobs at 160 uM GlcN6P; higher = faster cleavage; RNA array. A digest of the protocol: as §1
Data set [4] covers variants of B1. Briefly: self-cleavage kobs at 640 uM GlcN6P; higher = faster cleavage; RNA array. A digest of the protocol: as §1
Data set [5] covers variants of B1. The experiment in a line: self-cleavage kobs at 2500 uM GlcN6P; higher = faster cleavage; RNA array. A digest of the protocol:
as §1

Data set [6] covers variants of B1. Briefly: self-cleavage kobs at 10000 uM GlcN6P; higher = faster cleavage; RNA array. The gist of the method:
as §1

The variants in data set [7] derive from B1. Briefly: self-cleavage kobs at 40 uM GlcN6P; higher = faster cleavage; RNA array. A digest of the protocol:
as §1

The term kcat denotes the maximal rate divided by the concentration of active sites. Broadly, the KM is the concentration of substrate that gives half-maximal velocity. Take G32A A39U: the catalytic constant (kcat) with glucosamine-6-phosphate [1] is 0.00242 ± 0.00045 s⁻¹. Further, the Michaelis constant (KM) with glucosamine-6-phosphate [2] is 6.09 ± 1.6 mM. Besides, in the data set with glucosamine-6-phosphate [3], the “self-cleavage kobs at 160 uM GlcN6P” value amounted to 6.05e-05 ± 1.1e-05 s⁻¹. In the data set with glucosamine-6-phosphate [4], the “self-cleavage kobs at 640 uM GlcN6P” value turned out to be 0.000213 ± 2.9e-05 s⁻¹. The “self-cleavage kobs at 2500 uM GlcN6P” value with glucosamine-6-phosphate [5] was 0.000855 ± 0.0001 s⁻¹. For the same variant, the “self-cleavage kobs at 10000 uM GlcN6P” value with glucosamine-6-phosphate [6] amounted to 0.00144 ± 0.00017 s⁻¹.

On to G32A A39G, for which, in the data set with glucosamine-6-phosphate [1], the turnover number (kcat) was found to be 0.00635 ± 0.0016 s⁻¹. The KM in the data set with glucosamine-6-phosphate [2] came out at 6.19 ± 2 mM. In addition, the “self-cleavage kobs at 40 uM GlcN6P” value with glucosamine-6-phosphate [7] was found to be 3.65e-05 ± 8.1e-06 s⁻¹. In the data set with glucosamine-6-phosphate [3], the “self-cleavage kobs at 160 uM GlcN6P” value is 0.000271 ± 7.2e-05 s⁻¹. In the data set with glucosamine-6-phosphate [4], the “self-cleavage kobs at 640 uM GlcN6P” value is 0.000619 ± 9.3e-05 s⁻¹. Besides, the “self-cleavage kobs at 2500 uM GlcN6P” value in the data set with glucosamine-6-phosphate [5] came out at 0.00165 ± 0.0003 s⁻¹. In the data set with glucosamine-6-phosphate [6], the “self-cleavage kobs at 10000 uM GlcN6P” value came to 0.00403 ± 0.00055 s⁻¹.

For A15G C34G, in the data set with glucosamine-6-phosphate [1], the kcat is less than 1e-05 s⁻¹. The “self-cleavage kobs at 40 uM GlcN6P” value in the data set with glucosamine-6-phosphate [7] is less than 1e-05 s⁻¹. Moreover, the “self-cleavage kobs at 640 uM GlcN6P” value in the data set with glucosamine-6-phosphate [4] was less than 1e-05 s⁻¹.

As to A42G C71G, the kcat in the data set with glucosamine-6-phosphate [1] turned out to be 0.00124 ± 0.0003 s⁻¹. In addition, the KM with glucosamine-6-phosphate [2] amounted to 0.51 ± 0.23 mM. Further, in the data set with glucosamine-6-phosphate [7], the “self-cleavage kobs at 40 uM GlcN6P” value was 0.000167 ± 3.5e-05 s⁻¹. The “self-cleavage kobs at 160 uM GlcN6P” value with glucosamine-6-phosphate [3] came to 0.000264 ± 4.3e-05 s⁻¹. Further, in the data set with glucosamine-6-phosphate [4], the “self-cleavage kobs at 640 uM GlcN6P” value worked out at 0.000668 ± 8.8e-05 s⁻¹. The “self-cleavage kobs at 2500 uM GlcN6P” value with glucosamine-6-phosphate [5] was found to be 0.000941 ± 0.00016 s⁻¹. Besides, the “self-cleavage kobs at 10000 uM GlcN6P” value in the data set with glucosamine-6-phosphate [6] was 0.00158 ± 0.0003 s⁻¹.

Consider U47C C71A, for which the catalytic constant (kcat) with glucosamine-6-phosphate [1] was determined as 0.00134 ± 0.00043 s⁻¹. In addition, the “self-cleavage kobs at 40 uM GlcN6P” value with glucosamine-6-phosphate [7] was found to be 4.8e-05 ± 2e-05 s⁻¹. Besides, the “self-cleavage kobs at 160 uM GlcN6P” value in the data set with glucosamine-6-phosphate [3] worked out at 4.4e-05 ± 1.9e-05 s⁻¹. Moreover, in the data set with glucosamine-6-phosphate [4], the “self-cleavage kobs at 640 uM GlcN6P” value is 0.000204 ± 4.2e-05 s⁻¹. Further, the “self-cleavage kobs at 2500 uM GlcN6P” value with glucosamine-6-phosphate [5] was 0.000441 ± 0.00011 s⁻¹. Moreover, the “self-cleavage kobs at 10000 uM GlcN6P” value in the data set with glucosamine-6-phosphate [6] is 0.00101 ± 0.00017 s⁻¹.

As for U31C C58A, in the data set with glucosamine-6-phosphate [1], the catalytic constant (kcat) amounted to 0.000146 ± 6.8e-06 s⁻¹. The KM with glucosamine-6-phosphate [2] stood at 1.39 ± 0.21 mM. Moreover, the “self-cleavage kobs at 640 uM GlcN6P” value with glucosamine-6-phosphate [4] turned out to be 5.08e-05 ± 1.5e-05 s⁻¹. Further, the “self-cleavage kobs at 2500 uM GlcN6P” value in the data set with glucosamine-6-phosphate [5] turned out to be 8.99e-05 ± 1.5e-05 s⁻¹. Further, the “self-cleavage kobs at 10000 uM GlcN6P” value with glucosamine-6-phosphate [6] worked out at 0.00013 ± 1.5e-05 s⁻¹.

On to G9A A12U, for which the kcat in the data set with glucosamine-6-phosphate [1] was determined as 5.42e-05 ± 3.1e-06 s⁻¹. Further, in the data set with glucosamine-6-phosphate [3], the “self-cleavage kobs at 160 uM GlcN6P” value was less than 1e-05 s⁻¹. Further, in the data set with glucosamine-6-phosphate [6], the “self-cleavage kobs at 10000 uM GlcN6P” value came to 2.41e-05 ± 1e-05 s⁻¹.

Turning to G43U C67A, the catalytic constant (kcat) with glucosamine-6-phosphate [1] is 0.00389 ± 0.00036 s⁻¹. Also, the KM with glucosamine-6-phosphate [2] amounted to 1.31 ± 0.18 mM. For the same variant, the “self-cleavage kobs at 40 uM GlcN6P” value with glucosamine-6-phosphate [7] stood at 0.000122 ± 1.7e-05 s⁻¹. Besides, in the data set with glucosamine-6-phosphate [3], the “self-cleavage kobs at 160 uM GlcN6P” value was 0.000392 ± 8.9e-05 s⁻¹. Besides, the “self-cleavage kobs at 640 uM GlcN6P” value with glucosamine-6-phosphate [4] is 0.00129 ± 0.00023 s⁻¹. In addition, the “self-cleavage kobs at 2500 uM GlcN6P” value with glucosamine-6-phosphate [5] stood at 0.00219 ± 0.00043 s⁻¹. Moreover, the “self-cleavage kobs at 10000 uM GlcN6P” value with glucosamine-6-phosphate [6] was found to be 0.00371 ± 0.0005 s⁻¹.

On to U57G G62U, for which the kcat with glucosamine-6-phosphate [1] was less than 1e-05 s⁻¹. In addition, the “self-cleavage kobs at 40 uM GlcN6P” value in the data set with glucosamine-6-phosphate [7] is less than 1e-05 s⁻¹. Besides, in the data set with glucosamine-6-phosphate [5], the “self-cleavage kobs at 2500 uM GlcN6P” value is less than 1e-05 s⁻¹.

Consider U45A C67U, for which the kcat with glucosamine-6-phosphate [1] amounted to 0.0622 ± 0.028 s⁻¹. In the data set with glucosamine-6-phosphate [7], the “self-cleavage kobs at 40 uM GlcN6P” value worked out at 0.00106 ± 0.00014 s⁻¹. The “self-cleavage kobs at 160 uM GlcN6P” value with glucosamine-6-phosphate [3] amounted to 0.00246 ± 0.00047 s⁻¹. For the same variant, in the data set with glucosamine-6-phosphate [4], the “self-cleavage kobs at 640 uM GlcN6P” value was found to be 0.0118 ± 0.0023 s⁻¹. In addition, in the data set with glucosamine-6-phosphate [5], the “self-cleavage kobs at 2500 uM GlcN6P” value came to 0.033 ± 0.01 s⁻¹. The “self-cleavage kobs at 10000 uM GlcN6P” value with glucosamine-6-phosphate [6] was 0.0465 ± 0.014 s⁻¹.

As to U57A C67U, in the data set with glucosamine-6-phosphate [1], the kcat was found to be 0.000139 ± 3.1e-05 s⁻¹. The “self-cleavage kobs at 640 uM GlcN6P” value with glucosamine-6-phosphate [4] worked out at 5.03e-05 ± 1.7e-05 s⁻¹. The “self-cleavage kobs at 2500 uM GlcN6P” value in the data set with glucosamine-6-phosphate [5] was 5.36e-05 ± 9.6e-06 s⁻¹. In addition, the “self-cleavage kobs at 10000 uM GlcN6P” value with glucosamine-6-phosphate [6] came out at 0.000108 ± 1e-05 s⁻¹.

With G29U G37U, in the data set with glucosamine-6-phosphate [1], the turnover number (kcat) is less than 1e-05 s⁻¹. In addition, in the data set with glucosamine-6-phosphate [6], the “self-cleavage kobs at 10000 uM GlcN6P” value is less than 1e-05 s⁻¹.

As to A52C C70G, the turnover number (kcat) with glucosamine-6-phosphate [1] was found to be 3.19e-05 ± 1.1e-05 s⁻¹. For the same variant, the “self-cleavage kobs at 640 uM GlcN6P” value with glucosamine-6-phosphate [4] was 3.3e-05 ± 1e-05 s⁻¹. In the data set with glucosamine-6-phosphate [5], the “self-cleavage kobs at 2500 uM GlcN6P” value was 4.57e-05 ± 1.4e-05 s⁻¹.

As to A14G G44U, in the data set with glucosamine-6-phosphate [1], the kcat amounted to 0.00141 ± 0.00018 s⁻¹. Also, the KM with glucosamine-6-phosphate [2] came to 4.65 ± 0.84 mM. The “self-cleavage kobs at 160 uM GlcN6P” value with glucosamine-6-phosphate [3] was found to be 4.99e-05 ± 2e-05 s⁻¹. The “self-cleavage kobs at 640 uM GlcN6P” value in the data set with glucosamine-6-phosphate [4] amounted to 0.000163 ± 2.5e-05 s⁻¹. Besides, in the data set with glucosamine-6-phosphate [5], the “self-cleavage kobs at 2500 uM GlcN6P” value is 0.000558 ± 0.0001 s⁻¹. Moreover, in the data set with glucosamine-6-phosphate [6], the “self-cleavage kobs at 10000 uM GlcN6P” value is 0.000923 ± 0.00019 s⁻¹.

G40A G43C U47C C50G U65C: in the data set with glucosamine-6-phosphate [1], the kcat amounted to 2.52e-05 ± 1.1e-05 s⁻¹.

For the variant U54A U65G C67U, the catalytic constant (kcat) with glucosamine-6-phosphate [1] amounted to 0.00302 ± 0.00027 s⁻¹. In addition, the Michaelis constant (KM) with glucosamine-6-phosphate [2] was found to be 3.9 ± 0.5 mM. Also, the “self-cleavage kobs at 160 uM GlcN6P” value with glucosamine-6-phosphate [3] stood at 0.000109 ± 3.7e-05 s⁻¹. For the same variant, in the data set with glucosamine-6-phosphate [4], the “self-cleavage kobs at 640 uM GlcN6P” value amounted to 0.000434 ± 9.2e-05 s⁻¹. For the same variant, the “self-cleavage kobs at 10000 uM GlcN6P” value in the data set with glucosamine-6-phosphate [6] was 0.00217 ± 0.00041 s⁻¹.

The values are drawn from the supplement of paper PMC7125110.
